The results in this text go back to patent US20250144141A1 (CDR LIFE, published 2025).

Like-named read-outs stand apart in the source and are kept apart here.

The target in experiment [1] is T1, HLA-A*02:01/MAGE-A4 complex (human, UniProt P04439 25-299 at identity 0.94); P61769 21-119).
T1 construct: Coated on ELISA plates and on a streptavidin SPR chip; a biotin tag is not described; also called HLA-A2/MAGE-A4 complex; pMHC-MAGE-A4
Kind of experiment: SPR (Biacore T200), HLA-A*02:01/MAGE-A4 as ligand; sample kept in human serum at 37 C for 0, 7 and 24 h and injected after 1:100 dilution; signal relative to the start sample. In general terms: In SPR one partner is held on a chip, and binding of the other changes the refractive index at the surface.

Experiment [2] has as its target T1, HLA-A*02:01/MAGE-A4 complex. In words: SPR.
Experiment [3] shares this target. Kind of experiment: SPR. This is another data set of the same source.
The target of experiment [4] is HLA-A*02:01/MAGE-A4 displayed on T2 cells (human). In words: cell-based or functional assay.
Experiment [5] concerns the target T1, HLA-A*02:01/MAGE-A4 complex. Kind of experiment: SPR (Biacore T200), HLA-A*02:01/MAGE-A4 as ligand; sample kept in human serum at 37 C for 0, 7 and 24 h and injected after 1:100 dilution; signal relative to the start sample. The source holds these as a separate data set.
For experiment [6] the target is unchanged. In words: direct ELISA, plate coated with HLA-A*02:01/MAGE-A4 complex, serial dilution of the Fab.
The target is the same in experiment [7]. In words: direct ELISA, plate coated with HLA-A*02:01/MAGE-A4 complex, as in Example 6. For orientation: An ELISA detects its analyte on a solid surface through an enzyme-linked reagent.

B1: M1403 (bispecific antibody)
heavy: EVQLVESGGGLVQPGGSLRLSCAASGFTFSTYAMNWVRQAPGKGLEWVGRIRSKYNNYATYYADSVKGRFTISRDDSKNTLYLQMNSLRAEDTAVYYCVRHGNFGDSYVSWFAYWGQGTLVTVSSASTKGPSVFPLAPSSKSTSGGTAALGCLVKDYFPEPVTVSWNSGALTSGVHTFPAVLQSSGLYSLSSVVTVPSSSLGTQTYICNVNHKPSNTKVDKRVEPKSCGGGGSSYELTQPPSVSVSPGQTASITCTADTLSRSYASWYQQKPGQSPVLVIYRDTSRPSGIPERFSGSNSGNTATLTISGTQAMDEADYYCATRPSSGSNFQAFGGGTKLTVLGGGGGGSGGGGSGGGGSGGGGSEVQLLESGGGSVQPGGSLRLSCTVSGFSLSNYAMSWVRQAPGKGLEYIGIVSSGGTTYYASWAKGRFTISRDNSKNTVYLQMNSLRAEDTASYYCAKDLYYGPTTYSAFNLWGQGTSVTVSS
light: QAVVTQEPSLTVSPGGTVTLTCGSSTGAVTTSNYANWVQQKPGKSPRGLIGGTNKRAPGVPARFSGSLLGGKAALTISGAQPEDEADYYCALWYSNHWVFGGGTKLTVLGQPKAAPSVTLFPPSSEELQANKATLVCLISDFYPGAVTVAWKADSSPVKAGVETTTPSKQSNNKYAASSYLSLTPEQWKSHRSYSCQVTHEGSTVEKTVAPTECSGGGGSSYELTQPPSVSVSPGQTASITCTADTLSRSYASWYQQKPGQSPVLVIYRDTSRPSGIPERFSGSNSGNTATLTISGTQAMDEADYYCATRPSSGSNFQAFGGGTKLTVLGGGGGGSGGGGSGGGGSGGGGSEVQLLESGGGSVQPGGSLRLSCTVSGFSLSNYAMSWVRQAPGKGLEYIGIVSSGGTTYYASWAKGRFTISRDNSKNTVYLQMNSLRAEDTASYYCAKDLYYGPTTYSAFNLWGQGTSVTVSS
notes: Fab(scFv)2 dual pMHC-targeting T cell engager, no Fc; also called dual engager M1403
B1: the binding result in experiment [1] was “binds”.

B2: M1067 (bispecific antibody)
chain 1: SYELTQPPSVSVSPGQTASITCTADTLSRSYASWYQQKPGQSPVLVIYRDTSRPSGIPERFSGSNSGNTATLTISGTQAMDEADYYCATRPSSGSNFQLFGGGTKLTVLGGGGGGSGGGGSGGGGSGGGGSEVQLLESGGGSVQPGGSLRLSCTVSGFSLSNYAMSWVRQAPGKGLEYIGIVSSGGTTYYASWAKGRFTISKDTSKNTVYLQMNSLRAEDTASYYCAKDLYYGPTTYSAFNLWGQGTSVTVSS
chain 2: EVQLVESGGGLVQPGGSLRLSCAASGFTFSTYAMNWVRQAPGKGLEWVGRIRSKYNNYATYYADSVKGRFTISRDDSKNTLYLQMNSLRAEDTAVYYCVRHGNFGDSYVSWFAYWGQGTLVTVSSASTKGPSVFPLAPSSKSTSGGTAALGCLVKDYFPEPVTVSWNSGALTSGVHTFPAVLQSSGLYSLSSVVTVPSSSLGTQTYICNVNHKPSNTKVDKRVEPKSC
chain 3: QAVVTQEPSLTVSPGGTVTLTCGSSTGAVTTSNYANWVQQKPGKSPRGLIGGTNKRAPGVPARFSGSLLGGKAALTISGAQPEDEADYYCALWYSNHWVFGGGTKLTVLGQPKAAPSVTLFPPSSEELQANKATLVCLISDFYPGAVTVAWKADSSPVKAGVETTTPSKQSNNKYAASSYLSLTPEQWKSHRSYSCQVTHEGSTVEKTVAPTECS
By Kd is commonly meant the constant that tells how readily two partners part at equilibrium. In turn, B2 displayed a Kd in experiment [2] of 0.12 nM. This counts as sub-nanomolar.

B3: M1394 (bispecific antibody)
chain 1: SSELTQDPAVSVALGQTVRITCTADTLSRSYASWYQQKPGQAPVLVIYRDTSRPSGIPDRFSGSSSGNTASLTITGAQAEDEADYYCATRPSSGSNFQLFGGGTKLTVLGGGGGSGGGGSGGGGSGGGGSEVQLLESGGGSVQPGGSLRLSCTVSGFSLSNYAMSWVRQAPGKGLEWIGIVSSGGTTYYASWAKGRFTISRDNSKNTVYLQMNSLRAEDTASYYCAKDLYYGPNTDYSAANLWGQGTSVTVSS
chain 2: EVQLVESGGGLVQPGGSLRLSCAASGFTFSTYAMNWVRQAPGKGLEWVGRIRSKYNNYATYYADSVKGRFTISRDDSKNTLYLQMNSLRAEDTAVYYCVRHGNFGDSYVSWFAYWGQGTLVTVSSASTKGPSVFPLAPSSKSTSGGTAALGCLVKDYFPEPVTVSWNSGALTSGVHTFPAVLQSSGLYSLSSVVTVPSSSLGTQTYICNVNHKPSNTKVDKRVEPKSC
chain 3: QAVVTQEPSLTVSPGGTVTLTCGSSTGAVTTSNYANWVQQKPGKSPRGLIGGTNKRAPGVPARFSGSLLGGKAALTISGAQPEDEADYYCALWYSNHWVFGGGTKLTVLGQPKAAPSVTLFPPSSEELQANKATLVCLISDFYPGAVTVAWKADSSPVKAGVETTTPSKQSNNKYAASSYLSLTPEQWKSHRSYSCQVTHEGSTVEKTVAPTECS
Consider B3, for which binding in experiment [3] was characterised by a dissociation constant (Kd) of 1.4 nM. This counts as single-digit nanomolar.

B4: M1068 (bispecific antibody)
chain 1: SYELTQPPSVSVSPGQTASITCTADTLSRSYASWYQQKPGQSPVLVIYRDTSRPSGIPERFSGSNSGNTATLTISGTQAMDEADYYCATRPSSGSNFQLFGGGTKLTVLGGGGGGSGGGGSGGGGSGGGGSEVQLLESGGGSVQPGGSLRLSCTVSGFSLSNYAMSWVRQAPGKGLEWIGIVSSGGTTYYASWAKGRFTISKDTSKNTVYLQMNSLRAEDTASYYCAKDLYYGPTTYSAFNLWGQGTSVTVSS
chain 2: EVQLVESGGGLVQPGGSLRLSCAASGFTFSTYAMNWVRQAPGKGLEWVGRIRSKYNNYATYYADSVKGRFTISRDDSKNTLYLQMNSLRAEDTAVYYCVRHGNFGDSYVSWFAYWGQGTLVTVSSASTKGPSVFPLAPSSKSTSGGTAALGCLVKDYFPEPVTVSWNSGALTSGVHTFPAVLQSSGLYSLSSVVTVPSSSLGTQTYICNVNHKPSNTKVDKRVEPKSC
chain 3: QAVVTQEPSLTVSPGGTVTLTCGSSTGAVTTSNYANWVQQKPGKSPRGLIGGTNKRAPGVPARFSGSLLGGKAALTISGAQPEDEADYYCALWYSNHWVFGGGTKLTVLGQPKAAPSVTLFPPSSEELQANKATLVCLISDFYPGAVTVAWKADSSPVKAGVETTTPSKQSNNKYAASSYLSLTPEQWKSHRSYSCQVTHEGSTVEKTVAPTECS
In turn, B4 showed a Kd in experiment [3] of 1 nM.

B5: M1312 (bispecific antibody)
chain 1: SSELTQDPAVSVALGQTVRITCTADTLSRSYASWYQQKPGQAPVLVIYRDTSRPSGIPDRFSGSSSGNTASLTITGAQAEDEADYYCATRPSSGSNFQLFGGGTKLTVLGGGGGSGGGGSGGGGSGGGGSEVQLLESGGGSVQPGGSLRLSCTVSGFSLSNYAMSWVRQAPGKGLEWIGIVSSGGTTYYASWAKGRFTISKDTSKNTVYLQMNSLRAEDTASYYCAKDLYYGPNTDYSAANLWGQGTSVTVSS
chain 2: EVQLVESGGGLVQPGGSLRLSCAASGFTFSTYAMNWVRQAPGKGLEWVGRIRSKYNNYATYYADSVKGRFTISRDDSKNTLYLQMNSLRAEDTAVYYCVRHGNFGDSYVSWFAYWGQGTLVTVSSASTKGPSVFPLAPSSKSTSGGTAALGCLVKDYFPEPVTVSWNSGALTSGVHTFPAVLQSSGLYSLSSVVTVPSSSLGTQTYICNVNHKPSNTKVDKRVEPKSC
chain 3: QAVVTQEPSLTVSPGGTVTLTCGSSTGAVTTSNYANWVQQKPGKSPRGLIGGTNKRAPGVPARFSGSLLGGKAALTISGAQPEDEADYYCALWYSNHWVFGGGTKLTVLGQPKAAPSVTLFPPSSEELQANKATLVCLISDFYPGAVTVAWKADSSPVKAGVETTTPSKQSNNKYAASSYLSLTPEQWKSHRSYSCQVTHEGSTVEKTVAPTECS
B5 displayed a Kd in experiment [3] of 0.8 nM.

B6: M1397 (bispecific antibody)
heavy: EVQLVESGGGLVQPGGSLRLSCAASGFTFSTYAMNWVRQAPGKGLEWVGRIRSKYNNYATYYADSVKGRFTISRDDSKNTLYLQMNSLRAEDTAVYYCVRHGNFGDSYVSWFAYWGQGTLVTVSSASTKGPSVFPLAPSSKSTSGGTAALGCLVKDYFPEPVTVSWNSGALTSGVHTFPAVLQSSGLYSLSSVVTVPSSSLGTQTYICNVNHKPSNTKVDKRVEPKSCGGGGSQSVLTQDPAVSVALGQTVRITCTADTLSRSYASWYQQKPGQAPVLVIYRDTSRPSGIPDRFSGSSSGNTASLTITGAQAEDEADYYCATRPSSGSNFQAFGGGTKLTVLGGGGGSGGGGSGGGGSGGGGSEVQLLESGGGSVQPGGSLRLSCTVSGFSLSNYAMSWVRQAPGKGLEWIGIVSSGGTTYYADSVKGRFTISRDNSKNTVYLQMNSLRAEDTASYYCAKDLYYGPNTDYSAANLWGQGTSVTVSS
light: QAVVTQEPSLTVSPGGTVTLTCGSSTGAVTTSNYANWVQQKPGKSPRGLIGGTNKRAPGVPARFSGSLLGGKAALTISGAQPEDEADYYCALWYSNHWVFGGGTKLTVLGQPKAAPSVTLFPPSSEELQANKATLVCLISDFYPGAVTVAWKADSSPVKAGVETTTPSKQSNNKYAASSYLSLTPEQWKSHRSYSCQVTHEGSTVEKTVAPTECSGGGGSQSVLTQDPAVSVALGQTVRITCTADTLSRSYASWYQQKPGQAPVLVIYRDTSRPSGIPDRFSGSSSGNTASLTITGAQAEDEADYYCATRPSSGSNFQAFGGGTKLTVLGGGGGSGGGGSGGGGSGGGGSEVQLLESGGGSVQPGGSLRLSCTVSGFSLSNYAMSWVRQAPGKGLEWIGIVSSGGTTYYADSVKGRFTISRDNSKNTVYLQMNSLRAEDTASYYCAKDLYYGPNTDYSAANLWGQGTSVTVSS
notes: Fab(scFv)2 dual pMHC-targeting T cell engager, no Fc; also called dual engager M1397; dual T cell engager M1397
As for B6, the “IFN-gamma release (T cell activation) with PBMCs and T2 cells pulsed with titrated peptide, compound at 1 nM; EC50 on the peptide concentration” value in experiment [4] turned out to be 5.75 nM. In addition, in experiment [5], the binding result was “binds”.

B7: M0702 (Fab, V domains shown)
VH: QEQLEESGGGLVTPGTPLTLTCTASGFSLSSYAMIWVRQAPGKGLEWIGTINDGGTAFYANWVKGRFTISRTSTTVDLKMTSPTTEDTATYFCARAYGSNGDVYWGYVNLWGQGTLVTVSS
VL: ELVMTQTPASVSEPVGGTVTIKCQASQSIGSNLAWYQQKPGQPPKLLIYAAANLASGVSSRFKGSRSGTEYTLTISGVQAADAATYYCQQGYSSSNVANVFGGGTELEILR
The term EC50 (read off the curve) denotes the midpoint of the concentration-response curve. A lower EC50 (read off the curve) goes with a more potent agent. Take B7: the “EC50 (read off the curve)” value in experiment [6] was ~0.6 nM.

B8: M0873 (antibody, V domains shown)
VH: ESQVLESGGGSVQPGGSLRLSCTVSGFSLSNYAMSWVRQAPGKGLEYIGIVSSGGTTYYASWAKGRFTISKDTSKNTVYLQMNSLRAEDTASYYCAKDLYYGPTTYSAFNLWGQGTSVTVSS
VL: SYELTQPPSVSVSPGQTASITCTADTLSRSYASWYQQKPGQSPVLVIYRDTSRPSGIPERFSGSNSGNTATLTISGTQAMDEADYYCATSDGSGSNFQLFGGGTKLTVL
B8: the “EC50 (read off the curve)” value in experiment [7] was ~1 nM.
